Source: patent US20240166756A1 (KAOHSIUNG MEDICAL UNIVERSITY, published 2024)

B1: humanized anti-CXCR2 monoclonal antibody (NICR2-5) (antibody, human IgG1, kappa, V domains shown)
VH: QITLKESGPTLVKPTQTLTLTCTFSGFSLRTSGMGVGWIRQPPGKALEWLAHIWWDDDKRYKPDLKSRLTITKDTSKNQVVLTMTNMDPVDTATYYCARLGLRLRTMDYWGQGTLVTVSS
VL: DIVMTQTPLSLSVTPGQPASISCRSSLSLVHSNGDTYLHWYLQKPGQSPQLLIYKVSNRFSGVPDRFSGSGSGTDFTLKISRVEAEDVGVYYCSQSTHVPTFGQGTKLEIKR
notes: CDRs cloned into human IgG1 vector; Conjugated with Alexa Fluor-488 for flow cytometry; also called anti-CXCR2 mAb; humanized anti-CXCR2 mAb (NICR2-5)

Assays:
[1] = biological target: human C-X-C chemokine receptor 2 (CXCR2) (human) (UniProt P25025); test: flow cytometry, Alexa Fluor-488-conjugated control IgG1 on fixed HMC-1 cells (80 µg/ml per paragraph 49)
[2] = biological target: human C-X-C chemokine receptor 2 (CXCR2) (human) (UniProt P25025); test: flow cytometry, Alexa Fluor-488-conjugated control IgG1 on fixed MiaPaCa II cells (80 µg/ml per paragraph 49)
[3] = biological target: human C-X-C chemokine receptor 2 (CXCR2) (human) (UniProt P25025); test: flow cytometry, Alexa Fluor-488-conjugated control IgG1 on fixed Panc-1 cells (80 µg/ml per paragraph 49)
[4] = biological target: T1, CXCR2 antigen peptide (NICR2 peptide) (human, not fully specified); test: SPR (Biacore), antibody flowed over the NICR2 peptide, Langmuir 1:1 fit
T1 construct: The immunogen was this peptide conjugated with ovalbumin at its C-terminus ('-C-Ovalbumin')
T1 peptide: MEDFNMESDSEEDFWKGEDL
Text: Equilibrium affinity and rate constants derived from a Langmuir 1:1 binding kinetic analysis. The interactions between the humanized anti-CXCR2 mAb and the CXCR2 antigen peptide (NICR2 peptide) were detected by using SPR. The humanized anti-CXCR2 mAb flowed through the CXCR2 antigen peptide (NICR2 peptide) at the indicated concentrations. Data were corrected for nonspecific background binding. All data are representative of three independent experiments. […] Data shown is representative of 3 independent experiments.
The binding affinity of the humanized anti-CXCR2 monoclonal antibody (NICR2-5) was further investigated by surface plasmon resonance (SPR) Biacore technique. […] The binding of the humanized anti-CXCR2 mAb (NICR2-5) to cell surface receptor was analyzed by flow cytometry. Control IgG1 or humanized anti-CXCR2 mAb (NICR2-5) were conjugated with Alexa Fluor-488 fluorescent dye. Cancer cells were fixed with 3.5% formaldehyde for 15 min at room temperature. Fixed cells were incubated with fluorescent dye-conjugated IgG1 (80 μg/ml), or different concentrations of humanized anti-CXCR2 mAb (NICR2-5) (0, 40, 80 μg/ml) at 4° ° C. for 1 h. Cells were washed with phosphate-buffered saline (PBS) three times and subjected to flow cytometric analysis by using Attune NxT Flow Cytometer.

human C-X-C chemokine receptor 2 (CXCR2) (human), sequence (P25025 whole entry): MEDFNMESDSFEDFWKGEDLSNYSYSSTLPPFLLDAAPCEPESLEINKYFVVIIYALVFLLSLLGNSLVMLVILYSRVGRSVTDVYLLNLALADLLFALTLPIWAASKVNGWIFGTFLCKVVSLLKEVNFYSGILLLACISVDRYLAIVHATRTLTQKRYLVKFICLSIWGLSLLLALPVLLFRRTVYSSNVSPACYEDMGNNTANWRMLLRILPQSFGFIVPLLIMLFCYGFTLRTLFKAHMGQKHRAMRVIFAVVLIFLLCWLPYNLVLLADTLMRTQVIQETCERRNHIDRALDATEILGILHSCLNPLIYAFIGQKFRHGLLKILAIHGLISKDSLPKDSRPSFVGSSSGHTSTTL

| Molecule | Gated (%) [1] [%] | Gated (%) [2] [%] | Gated (%) [3] [%] | Kd [4] [nM] |
| --- | --- | --- | --- | --- |
| hIgG (antibody) | 6.6 | 9.3 | 8.2 | – |
| B1 | – | – | – | 0.3 |
